Tests used:
ELP1 = molecular target: T1, ELP1 (human, UniProt O95163 1-1332); experiment: IP/MS, LZTR1 wild type-FLAG, U87
T1 sequence (looked up): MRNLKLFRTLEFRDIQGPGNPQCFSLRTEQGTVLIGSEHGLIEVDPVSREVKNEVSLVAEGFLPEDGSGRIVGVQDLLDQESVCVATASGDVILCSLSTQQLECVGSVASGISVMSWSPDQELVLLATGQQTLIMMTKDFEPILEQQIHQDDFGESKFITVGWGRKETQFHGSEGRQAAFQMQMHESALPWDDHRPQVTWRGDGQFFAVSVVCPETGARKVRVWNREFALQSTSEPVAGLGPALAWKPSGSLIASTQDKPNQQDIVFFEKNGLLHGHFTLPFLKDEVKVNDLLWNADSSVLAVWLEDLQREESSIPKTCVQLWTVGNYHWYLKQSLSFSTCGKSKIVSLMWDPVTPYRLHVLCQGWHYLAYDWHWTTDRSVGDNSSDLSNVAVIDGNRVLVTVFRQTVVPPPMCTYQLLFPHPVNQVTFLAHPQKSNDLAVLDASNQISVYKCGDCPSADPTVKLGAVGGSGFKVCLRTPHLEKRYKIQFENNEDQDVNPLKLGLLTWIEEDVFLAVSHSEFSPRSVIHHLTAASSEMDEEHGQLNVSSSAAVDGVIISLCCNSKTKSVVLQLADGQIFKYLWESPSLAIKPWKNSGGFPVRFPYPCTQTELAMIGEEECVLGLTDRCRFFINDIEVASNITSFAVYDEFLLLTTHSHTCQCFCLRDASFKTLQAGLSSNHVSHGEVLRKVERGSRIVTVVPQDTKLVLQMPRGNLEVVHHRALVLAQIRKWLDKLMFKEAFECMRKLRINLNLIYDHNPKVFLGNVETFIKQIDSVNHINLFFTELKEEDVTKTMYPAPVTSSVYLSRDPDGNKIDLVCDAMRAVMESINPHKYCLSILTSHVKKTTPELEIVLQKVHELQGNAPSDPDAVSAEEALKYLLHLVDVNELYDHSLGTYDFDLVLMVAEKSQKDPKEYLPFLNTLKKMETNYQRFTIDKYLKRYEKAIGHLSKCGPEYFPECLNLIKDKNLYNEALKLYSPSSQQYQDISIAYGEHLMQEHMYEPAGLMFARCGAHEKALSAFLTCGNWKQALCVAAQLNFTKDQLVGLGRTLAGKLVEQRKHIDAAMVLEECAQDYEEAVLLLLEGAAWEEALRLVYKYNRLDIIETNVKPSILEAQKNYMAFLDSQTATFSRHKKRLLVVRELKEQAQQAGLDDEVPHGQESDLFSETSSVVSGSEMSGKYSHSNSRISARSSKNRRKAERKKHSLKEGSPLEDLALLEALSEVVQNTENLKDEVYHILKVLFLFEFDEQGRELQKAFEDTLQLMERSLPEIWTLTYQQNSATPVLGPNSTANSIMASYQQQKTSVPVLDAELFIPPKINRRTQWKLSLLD
Outline: (§1)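 Extracted peptides in 3% acetonitrile/0.1% formic acid ran on a 50 cm C18 column into an Orbitrap Fusion, with MaxQuant identification and spectral counting.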

LONP2 = molecular target: T2, LONP2 (human, UniProt Q86WA8 2-852, limits assumed); experiment: IP/MS, LZTR1 wild type-FLAG, U87
T2 sequence (looked up): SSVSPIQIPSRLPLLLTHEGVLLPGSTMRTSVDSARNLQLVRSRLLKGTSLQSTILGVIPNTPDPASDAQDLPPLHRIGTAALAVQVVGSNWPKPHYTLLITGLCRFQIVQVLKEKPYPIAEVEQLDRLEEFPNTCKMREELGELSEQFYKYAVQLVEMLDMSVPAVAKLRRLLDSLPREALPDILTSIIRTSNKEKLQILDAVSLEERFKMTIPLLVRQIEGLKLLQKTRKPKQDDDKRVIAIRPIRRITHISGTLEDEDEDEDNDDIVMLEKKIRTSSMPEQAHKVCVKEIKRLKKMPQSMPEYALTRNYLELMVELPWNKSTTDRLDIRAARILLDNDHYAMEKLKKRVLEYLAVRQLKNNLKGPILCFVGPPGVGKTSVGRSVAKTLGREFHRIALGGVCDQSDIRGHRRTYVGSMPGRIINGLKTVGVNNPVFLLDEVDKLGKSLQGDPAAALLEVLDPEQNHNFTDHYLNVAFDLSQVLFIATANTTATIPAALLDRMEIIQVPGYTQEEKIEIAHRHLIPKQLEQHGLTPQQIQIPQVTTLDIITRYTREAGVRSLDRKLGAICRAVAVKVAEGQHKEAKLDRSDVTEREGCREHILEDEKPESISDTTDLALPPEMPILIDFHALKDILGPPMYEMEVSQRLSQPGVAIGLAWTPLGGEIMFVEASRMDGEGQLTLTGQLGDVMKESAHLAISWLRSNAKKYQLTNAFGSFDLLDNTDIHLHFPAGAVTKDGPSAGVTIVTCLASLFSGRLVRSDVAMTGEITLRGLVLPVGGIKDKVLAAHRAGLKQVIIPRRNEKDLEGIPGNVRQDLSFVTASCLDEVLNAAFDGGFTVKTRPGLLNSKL
Outline: as §1

B1: LZTR1-FLAG (other, human, UniProt Q8N653 1-840, looked up)
chain: MAGPGSTGGQIGAAALAGGARSKVAPSVDFDHSCSDSVEYLTLNFGPFETVHRWRRLPPCDEFVGARRSKHTVVAYKDAIYVFGGDNGKTMLNDLLRFDVKDCSWCRAFTTGTPPAPRYHHSAVVYGSSMFVFGGYTGDIYSNSNLKNKNDLFEYKFATGQWTEWKIEGRLPVARSAHGATVYSDKLWIFAGYDGNARLNDMWTIGLQDRELTCWEEVAQSGEIPPSCCNFPVAVCRDKMFVFSGQSGAKITNNLFQFEFKDKTWTRIPTEHLLRGSPPPPQRRYGHTMVAFDRHLYVFGGAADNTLPNELHCYDVDFQTWEVVQPSSDSEVGGAEVPERACASEEVPTLTYEERVGFKKSRDVFGLDFGTTSAKQPTQPASELPSGRLFHAAAVISDAMYIFGGTVDNNIRSGEMYRFQFSCYPKCTLHEDYGRLWESRQFCDVEFVLGEKEECVQGHVAIVTARSRWLRRKITQARERLAQKLEQEAAPVPREAPGVAAGGARPPLLHVAIREAEARPFEVLMQFLYTDKIKYPRKGHVEDVLLIMDVYKLALSFQLCRLEQLCRQYIEASVDLQNVLVVCESAARLQLSQLKEHCLNFVVKESHFNQVIMMKEFERLSSPLIVEIVRRKQQPPPRTPLDQPVDIGTSLIQDMKAYLEGAGAEFCDITLLLDGHPRPAHKAILAARSSYFEAMFRSFMPEDGQVNISIGEMVPSRQAFESMLRYIYYGEVNMPPEDSLYLFAAPYYYGFYNNRLQAYCKQNLEMNVTVQNVLQILEAADKTQALDMKRHCLHIIVHQFTKVSKLPTLRSLSQQLLLDIIDSLASHISDKQCAELGADI
notes: Expressed in HEK 293T, HeLa or U87 cells; used as cell lysate; also called LZTR1 wild type-FLAG; LZTR1 WT; not shown: FLAG tag at the C-terminus
Question: Which results are given for B1?
Answer: binding result (ELP1): binds; binding result (LONP2): binds

From patent US20250262210A1 (TRUSTEES OF COLUMBIA UNIVERSITY IN THE CITY OF NEW YORK, published 2025)
